# PMC11943158
# Like-named read-outs stand apart in the source and are kept apart here.
# What was measured:
# [1] = O-GlcNAc at S355
# [2] = Flag Western blot; conditions: glycan lost; control: Gli2-WT
# [3] = cycloheximide chase, Flag Western blot; conditions: glycan lost
Protein,degradation_or_half_life [1],expression_or_secretion [1],expression_or_secretion [2],degradation_or_half_life ([3]; control: Gli2-WT),"degradation_or_half_life, half_life ([3]; control: PM without OSMI)"
Gli2: S355A (protein) parent chain: METSAPAPALEKKEAKSGLLEDSSFPDPGKKACPLAVAAAVAAHGVPQQLLPAFHAPLPIDMRHQEGRYHYDPHSVHSVHGPPTLSGSPVISDISLIRLSPHPAGPGESPFSAHHPYVNPHMEHYLRSVHSSPTLSMISAARGLSPADVAHEHLKERGLFSLAAPGTNPSDYYHQMTLMASHPTPYGDLLMQSGGAASAPHLHDYLNPVDASRFSSPRVTPRLSRKRALSISPLSDASLDLQRMIRTSPNSLVAYINNSRSSSAASGSYGHLSAGALSPAFTFPHPINPVAYQQILSQQRGLGSAFGHTPPLIQPSPTFLAQQPMTLTSISTMPTQLSSSSSNCLNDANQNKQNSESAVSSTVNPITIHKRSKVKTEAEGLRPASPLGLTQEQLADLKEDLDRDDCKQEAEVVIYETNCHWADCTKEYDTQEQLVHHINNEHIHGEKKEFVCRWQACTREQKPFKAQYMLVVHMRRHTGEKPHKCTFEGCSKAYSRLENLKTHLRSHTGEKPYVCEHEGCNKAFSNASDRAKHQNRTHSNEKPYICKIPGCTKRYTDPSSLRKHVKTVHGPDAHVTKKQRNDVHVRAPLLKENGDNEASAEPGGRGPEESVEASSTSHTVEDCLHIKAIKTESSGLCQSSPGAQSSCSSEPSPLGSAPNNDSGMEMPGTGPGSLGDLTALADTCPGADTSALAAPSTGGLQLRKHMSTVHRFEQLKREKLKSLKDSCSWAGPAPHTRNTKLPPLPVNGSVLENFNNTGGGGPAGLLPSQRLPELTEVTMLSQLQERRDSSTSTMSSAYTVSRRSSGISPYFSSRRSSEASPLGGLRPHNASSADSYDPISTDASRRSSEASQCSGGGPGLLNLTPAQQYNLRAKYAAATGGPPPTPLPGLDRVSLRTRLALLDAPERALPGACPHPLGPRRGSDGPTYSHGHGHGYAGAAPAFPHEGPNSSTRRASDPVRRPDPLILPRVQRFHSTHNMNPGSLPPCADRRGLHVQSHPSVDSNLTRNAYSPRPPSINENVVMEAVAAGVDGPGLECDLGLVEDELVLPDDVVQYIKAHTGGTLDDGIRQGYPTEGTGFPENSKLPSPGLQGHRRLAAADSNMGPSAPGLGGCQLSYSPSSNLNKSNMPVQWNEVSSGTVDALPTQVKPPPFPHSNLAVVQQKPAFGQYPGYNPQSVQSSSGGLDSTQPHLQLRGAPSASRGSYTQQPRQPAAGSQCLGMSAAMSPQASYSQAHPQLSPNIVSGSLNQFSPSCSNMAAKPSHLGLPQQMEVVPNATIMNGHQREHGVPNSSLAAVSQPHPVLSYPQQDSYQQGSNLLSSHQPGFMESQQNAGFGLMQPRPPLEPNTASRHRGVRSGQQQLYARTTGQAMVTSANQETAEAMPKGPAGTMVSLAPQPSQDTGRAQDQNTLYYYGQIHMYEQNGGCPAVQPQPPQPQACSDSIQPEPLPSPGVNQVSSTVDSQLLEPPQIDFDAIMDDGDHSSLFSGALSPTLLHNLSQNSSRLTTPRNSLTLPSIPAGISNMAVGDMSSMLTSLAEESKFLNMMT,decreases,decreases,decreases,decreases,
Gli2: OSMI (protein) parent chain: METSAPAPALEKKEAKSGLLEDSSFPDPGKKACPLAVAAAVAAHGVPQQLLPAFHAPLPIDMRHQEGRYHYDPHSVHSVHGPPTLSGSPVISDISLIRLSPHPAGPGESPFSAHHPYVNPHMEHYLRSVHSSPTLSMISAARGLSPADVAHEHLKERGLFSLAAPGTNPSDYYHQMTLMASHPTPYGDLLMQSGGAASAPHLHDYLNPVDASRFSSPRVTPRLSRKRALSISPLSDASLDLQRMIRTSPNSLVAYINNSRSSSAASGSYGHLSAGALSPAFTFPHPINPVAYQQILSQQRGLGSAFGHTPPLIQPSPTFLAQQPMTLTSISTMPTQLSSSSSNCLNDANQNKQNSESAVSSTVNPITIHKRSKVKTEAEGLRPASPLGLTQEQLADLKEDLDRDDCKQEAEVVIYETNCHWADCTKEYDTQEQLVHHINNEHIHGEKKEFVCRWQACTREQKPFKAQYMLVVHMRRHTGEKPHKCTFEGCSKAYSRLENLKTHLRSHTGEKPYVCEHEGCNKAFSNASDRAKHQNRTHSNEKPYICKIPGCTKRYTDPSSLRKHVKTVHGPDAHVTKKQRNDVHVRAPLLKENGDNEASAEPGGRGPEESVEASSTSHTVEDCLHIKAIKTESSGLCQSSPGAQSSCSSEPSPLGSAPNNDSGMEMPGTGPGSLGDLTALADTCPGADTSALAAPSTGGLQLRKHMSTVHRFEQLKREKLKSLKDSCSWAGPAPHTRNTKLPPLPVNGSVLENFNNTGGGGPAGLLPSQRLPELTEVTMLSQLQERRDSSTSTMSSAYTVSRRSSGISPYFSSRRSSEASPLGGLRPHNASSADSYDPISTDASRRSSEASQCSGGGPGLLNLTPAQQYNLRAKYAAATGGPPPTPLPGLDRVSLRTRLALLDAPERALPGACPHPLGPRRGSDGPTYSHGHGHGYAGAAPAFPHEGPNSSTRRASDPVRRPDPLILPRVQRFHSTHNMNPGSLPPCADRRGLHVQSHPSVDSNLTRNAYSPRPPSINENVVMEAVAAGVDGPGLECDLGLVEDELVLPDDVVQYIKAHTGGTLDDGIRQGYPTEGTGFPENSKLPSPGLQGHRRLAAADSNMGPSAPGLGGCQLSYSPSSNLNKSNMPVQWNEVSSGTVDALPTQVKPPPFPHSNLAVVQQKPAFGQYPGYNPQSVQSSSGGLDSTQPHLQLRGAPSASRGSYTQQPRQPAAGSQCLGMSAAMSPQASYSQAHPQLSPNIVSGSLNQFSPSCSNMAAKPSHLGLPQQMEVVPNATIMNGHQREHGVPNSSLAAVSQPHPVLSYPQQDSYQQGSNLLSSHQPGFMESQQNAGFGLMQPRPPLEPNTASRHRGVRSGQQQLYARTTGQAMVTSANQETAEAMPKGPAGTMVSLAPQPSQDTGRAQDQNTLYYYGQIHMYEQNGGCPAVQPQPPQPQACSDSIQPEPLPSPGVNQVSSTVDSQLLEPPQIDFDAIMDDGDHSSLFSGALSPTLLHNLSQNSSRLTTPRNSLTLPSIPAGISNMAVGDMSSMLTSLAEESKFLNMMT,"decreases, PM extended half-life from approximately 6 to 24 h; OSMI eliminated this",,,,decreases
